experiment: yeast display, Sf9 membrane polyspecificity reagent, FACS + sequencing; frameworks hold sequencing errors
How it was run: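 Nanobodies came from a synthetic yeast display library in Saccharomyces cerevisiae BJ5465, induced with galactose for 36–48 hours and stained for 1 hour at 4 °C with 10% biotinylated, detergent-solubilized Sf9 membrane reagent. Cells were enriched on streptavidin microbeads and then FACS-sorted, with low and high (top ~1%) gates set on anti-HA fluorescence for expression and streptavidin fluorescence for reagent binding. Each polyreactivity label reflects the gate a clone came from. Genes were amplified by colony PCR, sequenced by MiSeq 2 × 250 and filtered by CDR length.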

Sequence | polyreactivity (PSR sort gate)
QVKIVESGGGLVQAGGSLRLSCAATGITFAWYAMGWYRQAPGKERELVAAITWSGDSTYYADSVKGRFTISRDNAKNTVYLQMKSLKPEDTAVYYCAAEGLVFWFGTPYDYWGQGTQVTVSS | high polyreactivity
QVQLVESGGGLVQAGGSLRISCAASGSIFRGNAMGWYRQAPGKERELVAAISKSGGSTYYADSVKGRITISRDNAKNTVYLQMNSLKPEDTAVYYCAARTTYLYGMYYWGQGTQVTVSS | low polyreactivity
QVQLVESGGGLVQAGGSLRLSCADSGSTFRRYTMGWYRQAPGKERELVASITRSGGSKYYADSVKGRFTISRDNAKNTVYLQMNSLKPEDTAVYFCNKLSGYGWRSYGYWGQGTQVTVSS | high polyreactivity
QVQLVESGGGLVQAGGSHRLSCAASGRTFRRNTMGWYRQAPGKERELVAAISSSGSSTYYADSVKGRFTISRDNAKNSVYLQMNSLKPEDTAVYYCAATGYPRFGYWGQGTQVTVSS | high polyreactivity
QVQLVESGGGLVQAGGSLRLSCAASGITFVQNVMGWYRQAPGKEREFVAGINNSGGSTYYADSVKGRFTISRDNAKNTVYLQMNSLKPEDTAVYYCAAVYDRYTYAFVYRYRRMYYWGQGTQVTVSS | low polyreactivity
QVQLVESGGGLVQAGGSLRLSCAASGSIFRGYAMGWYRQAPGKERELVAVITSGGSTDYADSVKGRFTISRDNAKNTVYLQMNSLKPEDTAVYYCAALPGGYYDRGEYDYWGQGTQVTVSS | low polyreactivity
QVQLVESGAGLVQAGGRLRLSCAPSGSTFIYNAMGWYRQAPGKERELVASITGGTSTNYADSVKGRFTISRDNAKNTVYLQMNSLKPEDTAVYYCAAVWVWGEYDYWGQGTQVTVSS | low polyreactivity
QVQLVESGGGLVQAGGSLRLSCAASGRTFSSYAMGWYRQAPGKERELVARISSSGGRTSYADSVKGRFTISRDNAKNTVYLQMKSLKPEDTAVYYCAKTYHWLYDYWGQGTQVTVSS | high polyreactivity
QVQLVESGGGLVQAGGSLRLSCAASGGNFRLYAMGWYSPAPGKERELVAAINGGGSTNYADSVKGRFTISRDNAKNTVYLQMNSLKPEDTAVYYCNAVQYYRFQVYEYDYWGQGTQVTVSS | high polyreactivity
QVQLVESGGGLVQAGGSLRLSSAASGSTFGYNAMGRYRPAPGKERELVAAISRSGGSTSNADSVMGRFTISRDNANNTVYLQMNSLKPEDTAVYYCAARYYKERYWGQGTQVTVSA | low polyreactivity
QVQLVESGGGLVQEGGSLRLSCAASGTFYRYAMGWYRQAPGKERELVAAISRSGGSTYYADSVKGRFTISRDNAKNTVYLQMNSLKPEDTAVYYCAAYSRSFYLASLYDYWGQGTQVTVSS | high polyreactivity
QVQLVESGGGLVQAGGSLRLSCAASGRTFRRYAMGWSRQAPGKERELVATISSGGSTNYADSVKGRFTISRDNAKNTVYLQMNSLKPEDTAVYYCKARGRSTVTYGYWGQGTQVTVSS | high polyreactivity
QVQLVESGGGLVQAGGSLRLSCAASGITFYDYAMGWYRQEPGKERELVAAINSSGVRTYYADSVKGRFTISRDNAKNTVYLQMNSLKPEDTAVYYCAAVRRGPYISRSDMDYYWGQGTQVTVSS | high polyreactivity
QVQLVESGGGLVQAGGSLRLSCAASGSIFSWYTMGWYRQAPGKERELVAAISRRGGSTYYADSVKGRFTISRDNAKNTVFLQMNSLKPEDNAVYYCAAAHPATRYDYWGQGTQVTVSS | high polyreactivity
QVQLVESGGGLVQAGGSLRLSCAASGRIFNSNTMGWYRQAPGKERELVAAIRGSGGSTYADSVKGRFTISRDNAKNTVYLQMNSLKPEDTAVYYCAASPRRWYTPDAVSTYRMYYWGQGTQVTVSS | high polyreactivity
QVQLVESGGGLVQAGGSLRLSCAASGSIYFTNAMGWYRQAPGKERELVAAIRWRGDRTYYADSVKGRFTISRDNGKNTVYLQMNSLIPEDTAVYYCAVAPSYKITEDSWGQGTQVTVSS | low polyreactivity
QVQLVESGGGLVQAGGSLRLSCAASGRTFDEYAMGWYRQAPGKERVLVAAIDSGGSTTYADSVKGRFTISRDNAKNTVYLQINSLKPEDTAVYYCAASYPYWYITPRKFEYWGQGTQVTVSS | low polyreactivity
QVQLVESGGGLVQAGGSLRLSCAASGSIFKRYAMGRYRQAPGKERELVAAISYSGTSTYYADSVKGRFTISRDTAKNTVYLQMNSLKPEDTAVYYCNKVPGYRHYLGYPGRYGYWGQGTQVTVSS | high polyreactivity
QVQLVESGGGLVQAGGSLRLSCAASGSIFITYAMGWYRQAHGKERELVAAIRDSGDRTYYADSVKGRFTISRDNAKNTVYLQMNSLKPEDTAVYYCNKDIERYVRIYDSWGQGTQVTVSS | low polyreactivity
QVQLVESGGGLVQAGGSLRLSCAASGFIFQANAMGWYRQAPGKETELDAAIDDGDTTYADSVKGRFTISRDNAKNTVYLQMNSLKPEDTAGYYCATRRNRSYDYWGQGTQVTVSS | low polyreactivity
QVQLVESGGGLVQAGGSLRLSCAASGSIIGTYAMGWYRQAPGKERELVAAISSSGGRTYYADSVKGRFTISRDNAKNTVYLQMNSLKPEDTAVYYCNTRPGTVFRAGGDYWGQGTQVTVSS | high polyreactivity
QVQLVESGGGLVQAGGSLRLSCAASGRIVGRHALGWYRQAPGKERELVAAMSSSGGTYYADSVKGRFTISRDKAKNTLYLQMNSLKPEDTAVYYCNARVRTQQRWVDYWGQGTQVTVSS | high polyreactivity

Sequence | polyreactivity (PSR sort gate)
QVQLVESGGGLVQAGGSLRLSCAASGYTFPIYAMGWYRQAPGKERELVATISSGGRTNYADSVKGRFTISRDNAKNTVYLQMKSLKPEDTAVSYCNARRLGWHALYLYDYWGQGTQVTVSS | high polyreactivity
QVQLVESGGGLVQAGGSLRLSCAASGRTFVRYAMGWYRQAPGKERELVARITSRGTSTYYADSVKGRFTISRDNAKNTVYLQMNSLKPEDTAVYYCNKVRTFRDKSRYDYWGQGTQVTVSS | low polyreactivity
QVQLVESGGGLVQAGGSLRLSCAASGRTFRSYAMGWYRQAPGKDRELVAAISYGGGRTFYADSVKGRFTISRDNEKNTVYLQMNSLKPEDTAVYYCNAAFPRSYRFDYWGQGTQLTVSS | high polyreactivity
QVQIVESGGGLVQAGGSLRLSCAASGSIFSDYVMGWYRQAPRKERELVATISRGGGSTFYADSVKGRFTISRDYAKITVYLQMNSLKPEDTAVYYCAAPPGPSGAKYDYWGQGTQVSVSS | low polyreactivity
QVQLVESGGGLVQAGGSLRLSCAASGRIFKYYTMGWSRQAPGKERELVAAISRDDSTNYADSVKGRFTISRDNAKNTVYLQMNSLKPEDTAVYYCAKGYHQYAGFYYWGQGTQVTVSS | high polyreactivity
QVQLVESGGGLVQAGGILRLSCAASGRIFSSYSMGWYRQAPGKESELVAAISRSGARTYYADSVKGRFTISRDYAKNTVYLQMNSLKPEDTAVYYCAAVTVAGYDYWGQGTQVTVSS | high polyreactivity
QVQLVESGGGLVQAGGSLRLSCAASGSTFVGYAMGWYRQAPGKEREFVAAITRGGSTNYADSVKGRFTISRDNAKNTVYLQMNSLKPEDTAVYYCAARDRREGFNFDYWGQGTQVTVSS | low polyreactivity
QVQLVESGGGLVQAGGSLRLSCAASGSTFEDYVMGWYRQAPGKERELVAAITSGDNTKYADSVKGRFTISRDNAKNTVYLQMNSLKPEDTAVYYCNADFPDVRSEYDYWGQGTQVTVSS | high polyreactivity
QVQLVESGGGLVQAGGSLRLSCAASGGTFDNYAMGWYRQAHGKERELVAAISWSGDNTYYADSVKGRFTISRDNAKNTVYLQMNSLKPEVTAVYYCAAVYFWYSYDEGYTAYDYWGQGTQVTVSS | low polyreactivity
QVQLVESGGGLVQAGGSLRLSCAASGRIFGYYAMGWYRQAPGKERELVAAIDSSGGSTTYADSVKGRFTISRDYAKNTVYLQMNSLKPEDTAVYYCNAGYALRSGPWYYYELDYWGQGTQVTVSS | low polyreactivity
QVKLVETGGGLVQAGGSLRLSSAASGTTFVHYDMGWYRQAPGNERELVAAISRSGASTYYADSVKGRFTISRDHAKNTVYLQMNSLKPDDTAVYYCATIKYYGRRFNYWGQGTQVTVSS | high polyreactivity
QVQLVESGGGLVQAGGSLRLSCAASGITSGTYAMGRYRQAPGKERELVAGISRSGTRTYYADSVKGRFTISRDNAKNTVYLQMNSLKPEDTEVYYCNTYVGRRPGYGYWGQGTQVTVSS | high polyreactivity
QVQLVESGGGLVQAGGSLRLSCAASGRIFLRYVMGWYRQAPGKERELVAAIRSNGGSTYADSVKGRFTISRDNAKNTVYLQMNSLKPEDTAVYYCAARYFNTKGSFVVGYGYWGQGSQVTVSS | high polyreactivity
QVQLVESGGGLVHAGGSLRLSCASSGSIFIRNAMGWYRQAPGKERELVASISRSGASTRYADSVKGLFTISRDNAKNTVYLQMNSLNPEDTAVYYCNDVIRRYFVPSSYDYWGQGTQVTVSS | high polyreactivity
QVQLVESGGGLFHAGGSLRLSCAASGSTFSRNAMGWYIPAPGKEREFVAAISWSGSSTYYADSVKGRFTISRDNAKNTVYLQMNSLKPEDTAVYYCAARSYYDGFYYWGQGTQVTVSS | high polyreactivity
QVQLVESGGGLVQAGGRLRLSCAASGRTFPLYAMGWYRQAPGKERELVAAISSSGGNTYYADSVKGRFTISRDNAKNTVYLQMNSLIPEETAVYYCNADVSTNSDRLQLDYWGQGTQVTVSS | low polyreactivity
QVQLVESGGGLVQAGGSLRLSCAASGRSLEHNAMGWYSQAPGKERELVAAISGSGGTTYYADSVKGRFTISRDNAKNTVYLQMNSLKPEDTAVYYCNAKLYRSFDYWGQGTQVTVSS | low polyreactivity
QVQLVESGGGLVQAGGSHRLSCASSGSTFLPNAMGWYRQPPGKERELVAAITNSGGNTYADSVKGRFTISRDNAKNTVYLEMNSLKPEDTAVYYCNARFSPTGWARGNDYWGQGTQVTVSS | low polyreactivity
QVQLVESGGVLVQAGGSLRLSCAASGSTFEDYTMGWYRQAPRKVRELVAISTRGGTYYADSVKGRFTSSRDNPKNTVYLQRNSLKPEDTAVYYCNKRFGYYSWDQYSRDYWGQGTQVTVSS | low polyreactivity
QVQLVESVGGLVQAGGSLRLSCAASGSTFKYNAMGWYRQAHGKERELVAAISRRGGSTYYADSVKGRFTISRDNAKNTVYLQMNSLKPDETAVYYCAADIIRPVTVDYWGQGTQVTVSS | high polyreactivity
QVQLVDSGGGLVQAVGSLRLSCAASGSIFRLNAMGWYRQAPGKERDLVGAITWSDSSTYYADSVKGRFTISRDNAKNTVYLQMNSLKPEDTAVYYCAADPQSYKYDYWGQGTQVTVSS | low polyreactivity
